Test results reported in article PMC6203763.
One block for each molecule: values may come before it.

Key:
[1] = target: recombinant human wild-type SHMT2 (isoform 3) (human); test: SEC; recombinant proteins purified by nickel affinity chromatography, separated by gel filtration, fractions analysed by western blot
[2] = target: T1, Flag-tagged wild-type SHMT2 expressed in SHMT2-knockout HCT116 cells (human), P34897; test: cross-linking; cell lysates treated with or without 0.025% glutaraldehyde, western blot with anti-SHMT2; SHMT2-knockout HCT116 cells expressing Flag-tagged WT or K95Q, and SIRT3-knockout or control HCT116 cells; conditions: remark: other sources report otherwise
T1 chain: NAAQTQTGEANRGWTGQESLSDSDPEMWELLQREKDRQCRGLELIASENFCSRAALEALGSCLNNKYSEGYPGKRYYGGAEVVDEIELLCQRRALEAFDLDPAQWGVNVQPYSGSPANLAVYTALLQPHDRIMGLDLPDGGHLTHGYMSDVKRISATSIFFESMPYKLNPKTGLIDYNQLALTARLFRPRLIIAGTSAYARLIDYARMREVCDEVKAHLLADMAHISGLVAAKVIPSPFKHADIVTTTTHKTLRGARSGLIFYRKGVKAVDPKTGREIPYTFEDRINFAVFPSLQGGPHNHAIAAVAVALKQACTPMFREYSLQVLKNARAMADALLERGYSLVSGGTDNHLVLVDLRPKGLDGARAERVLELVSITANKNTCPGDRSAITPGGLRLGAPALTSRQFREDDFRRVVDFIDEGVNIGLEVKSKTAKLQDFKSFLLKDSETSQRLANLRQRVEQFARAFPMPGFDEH

[3] = target: T2, serine hydroxymethyltransferase 2 (SHMT2), endogenous in HCT116 cells (human (endogenous in HCT116)), P34897; test: as above; conditions: remark: other sources report otherwise
T2 chain: T1 chain

stoichiometry N [1]: 4
Molecule: recombinant human wild-type SHMT2 (isoform 3) (enzyme)

stoichiometry N [2]: 4
B1: Flag-tagged wild-type SHMT2 expressed in SHMT2-knockout HCT116 cells, P34897 30-504 (natural protein)
chain: T1 chain

stoichiometry N [3]: 4
B2: serine hydroxymethyltransferase 2 (SHMT2), endogenous in HCT116 cells, P34897 30-504 (natural protein)
chain: T1 chain
